For the data set, the system named is T1, RstA (Escherichia coli LF82 (adherent-invasive)?), ORF:9fe818c8.
T1 sequence: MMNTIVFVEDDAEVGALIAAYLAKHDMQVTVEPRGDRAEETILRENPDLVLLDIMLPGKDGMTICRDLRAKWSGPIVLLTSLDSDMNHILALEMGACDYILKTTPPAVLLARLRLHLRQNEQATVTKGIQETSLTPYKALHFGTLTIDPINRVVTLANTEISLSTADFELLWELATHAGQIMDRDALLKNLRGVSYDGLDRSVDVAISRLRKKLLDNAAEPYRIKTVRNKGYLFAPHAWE
Kind of data set: EMSA. The note with it: EMSA: 40 ng PCR fragment, 0-2 uM RstA, 20 uL; 1 mM Tris-HCl pH 7.5, 0.2 mM DTT, 5 mM MgCl2, 10 mM KCl, 10% glycerol, 30 mM acetyl phosphate; 25 C 30 min …. Background: In EMSA bound probe runs differently from free probe, usually more slowly.

For “ATGACGAAAGGACTACAGCGAAATATTTTTTATATGCATTATTAGTAAGTTAGCACCATTTGTATGATTTTTTAAAATTGTGCAATAAAAACCAAATGTACAACTTTTCTATCATTTATAAACTTAATAAAACCTTAAGGTTAACATTTTAATATAACGAGTTGCATTTAGTTACATGTTTAACACTTGATTTAAGATTTGTAATGGCTAGATTGAAATCAGATGTAATCCATTAGTTTTATATTTTACCCATTTAGGGCTGATTTATTACTACACACA (double strand) [csgD promoter]”, the binding result is reported as “binds”.
In the case of “TGCGCAGTTATTCTACCGCTTTGTAAGTAGTAAAATAGTTAACACGATCAAGACTACTATTATTGGTAGCTAAATTTTCCTTAAGTCACAATACGTTATTATCAATGCTGTAATTTATTCAGCGTTTGTACATATCGTTACACGCTGAAACCAACCACTCACGGAAGTCTGCCATTCC (double strand) [asr promoter]” it was “binds”.
In the case of “CAAGCAAAAGCCTGGTTCCGCCGATTTATCGCTGCGGCAAATAACGCAGCGGGTTTACGGATTTCCCCTTGTAACGAATTTCAAAATGCAAGCGTGTTGAACTGGTTCCGGTGCTACCCATGGTTGCTATTTTTTGCCCCGCCTTCACTTCTTGTTGTTCCCGGACCAGCATTGTGTCGTTATGGGCGTAGG (double strand) [rpoS promoter (negative control)]” it was “no binding”.

The values above are taken from PMC11135836.
